{"source": "paper PMC10516938", "about": "“Conformational dynamics of cohesin/Scc2 loading complex are regulated by Smc3 acetylation and ATP binding” (Nature Communications, 2023)", "binders": {"B1": {"name": "Scc2 D369C (natural protein, S. cerevisiae, UniProt Q04002 1-1493, looked up)", "chain": "MSYPGKDKNIPGRIIEALEDLPLSYLVPKDGLAALVNAPMRVSLPFDKTIFTSADDGRDVNINVLGTANSTTSSIKNEAEKERLVFKRPSNFTSSANSVDYVPTNFLEGLSPLAQSVLSTHKGLNDSINIEKKSEIVSRPEAKHKLESVTSNAGNLSFNDNSSNKKTKTSTGVTMTQANLAEQYLNDLKNILDIVGFDQNSAEIGNIEYWLQLPNKKFVLTTNCLTKLQMTIKNITDNPQLSNSIEITWLLRLLDVMVCNIKFSKSSLKMGLDDSMLRYIALLSTIVLFNIFLLGKNDSNLHRESYIMEPVNFLSDLIESLKILTIEYGSLKIEFDTFQEALELLPKYIRNGPFLDDNVTAKLVYIFSCLLMNNDIEATTNIQFQSFWDNVKRISSDILVSLFGSFDQQRGFIIEELLSHIEKLPTKRIQKKLRKVGNQNIYITDFTFTLMSMLENINCYSFCNQMKDIAPENIDLLKNEYKKQEEFLFNIVEHINDTILERFFKNPSALRYVIDNFVQDLLLLISSPQWPVTEKILSSLLKRLLSVYSPSMQVSANIETICLQLIGNIGSTIFDIKCSTRDHEDNNLIKMINYPETLPHFFKSFEECIAYNETIKCRRSATRFLWNLRLGTILILEEYTKDAKEQIITVDNELKKILEQIKDGGLGPELENREADFSTIKLDYFSILHAFELLNLYDPYLKLILSLLAKDKIKLRSTAIKCLSMLASKDKVILSNPMVKETIHRRLNDSSASVKDAILDLVSINSSYFEFYQQINNNYNDDSIMVRKHVLRINEKMYDETNDIVTKVYVIARILMKIEDEEDNIIDMARLILLNRWILKVHEVLDQPEKLKEISSSVLLVMSRVAIMNEKCSQLFDLFLNFYLLNKEAHSKEAYDKITHVLTILTDFLVQKIVELNSDDTNEKNSIVDKQNFLNLLAKFADSTVSFLTKDHITALYPYMVSDEKSDFHYYILQVFRCTFEKLANFKQKFLYDLETTLLSRLPKMNVREIDEAMPLIWSVATHRHDTARVAKACSSCLSHLHPYINKANNEEAAIVVDGKLQRLIYLSTGFARFCFPKPSNDKIAFLQEGETLYEHITKCLLVLSKDKITHVIRRVAVKNLTKLCGNHPKLFNSRHVLHLLDKEFQSDQLDIKLVILESLYDLFLLEERKSVRNTGVNSTLSSNSILKKKLLKTNRVEFANDGVCSALATRFLDNILQLCLLRDLKNSLVAIRLLKLILKFGYTNPSHSIPTVIALFASTSQYIRHVAYELLEDLFEKYETLVFSSLSRGVTKAIHYSIHTDEKYYYKHDHFLSLLEKLCGTGKKNGPKFFKVLKRIMQSYLDDITDLTSTNSSVQKSIFVLCTNISNITFVSQYDLVSLLKTIDLTTDRLKEVIMDEIGDNVSSLSVSEEKLSGIILIQLSLQDLGTYLLHLYGLRDDVLLLDIVEESELKNKQLPAKKPDISKFSAQLENIEQYSSNGKLLTYFRKHVKDT", "notes": "Scc2, S. cerevisiae; source: S. cerevisiae W303, in vivo, whole-cell extract"}}, "key": {"[1]": {"biological_target": "T1, Smc3 K1004C E1155Q (S. cerevisiae, UniProt P47037 1-1230, K1004C | E1155Q)", "T1 construct": "Smc3, S. cerevisiae; also called EQ mutant version of Smc3^K1004C; source: S. cerevisiae W303, ectopically expressed, late G1 arrested cells, whole-cell extract", "T1 sequence (looked up)": "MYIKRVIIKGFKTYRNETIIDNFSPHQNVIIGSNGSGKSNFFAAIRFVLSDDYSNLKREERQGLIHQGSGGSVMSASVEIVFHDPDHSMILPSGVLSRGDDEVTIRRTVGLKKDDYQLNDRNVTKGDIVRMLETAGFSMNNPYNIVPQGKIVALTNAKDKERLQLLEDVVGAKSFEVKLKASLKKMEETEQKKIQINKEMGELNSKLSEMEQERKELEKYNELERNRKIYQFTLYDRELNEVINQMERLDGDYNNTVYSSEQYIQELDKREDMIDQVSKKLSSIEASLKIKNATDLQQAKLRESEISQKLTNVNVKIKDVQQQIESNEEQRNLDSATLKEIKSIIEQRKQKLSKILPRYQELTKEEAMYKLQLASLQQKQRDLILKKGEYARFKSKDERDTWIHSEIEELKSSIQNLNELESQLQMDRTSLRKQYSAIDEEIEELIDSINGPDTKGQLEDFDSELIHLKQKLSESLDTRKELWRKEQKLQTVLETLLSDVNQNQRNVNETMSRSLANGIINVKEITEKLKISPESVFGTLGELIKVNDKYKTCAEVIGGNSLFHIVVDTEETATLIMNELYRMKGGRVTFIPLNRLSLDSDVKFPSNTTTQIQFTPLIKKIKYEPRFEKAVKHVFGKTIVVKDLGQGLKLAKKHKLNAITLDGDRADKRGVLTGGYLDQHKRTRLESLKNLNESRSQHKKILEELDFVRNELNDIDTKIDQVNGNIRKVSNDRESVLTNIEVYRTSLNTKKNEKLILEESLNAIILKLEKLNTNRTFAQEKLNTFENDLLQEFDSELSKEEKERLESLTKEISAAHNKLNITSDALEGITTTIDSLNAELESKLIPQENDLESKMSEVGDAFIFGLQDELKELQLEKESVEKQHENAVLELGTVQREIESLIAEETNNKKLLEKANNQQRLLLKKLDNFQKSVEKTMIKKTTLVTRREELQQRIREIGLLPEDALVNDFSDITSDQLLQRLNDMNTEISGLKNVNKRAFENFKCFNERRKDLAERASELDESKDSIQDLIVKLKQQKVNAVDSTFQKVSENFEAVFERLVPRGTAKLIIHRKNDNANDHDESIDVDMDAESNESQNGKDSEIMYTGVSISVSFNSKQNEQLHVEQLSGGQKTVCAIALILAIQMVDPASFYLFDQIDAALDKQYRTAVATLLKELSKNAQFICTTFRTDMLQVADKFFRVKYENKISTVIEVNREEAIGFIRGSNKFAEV", "assay": "cross-linking; in vivo BMOE cross-link of cysteine pairs in yeast cells arrested in late G1 by non-degradable Sic1(9m); Scc1-PK immunoprecipitated, western blot, band intensities quantified", "details": "partners not purified"}, "[2]": {"biological_target": "T2, Smc3^QQ R1008I K1004C (S. cerevisiae, UniProt P47037 1-1230, K112Q | K113Q | K1004C | R1008I)", "T2 construct": "Smc3, S. cerevisiae; also called smc3-QQ K1004C with R1008I; source: S. cerevisiae W303, late G1 arrested cells, whole-cell extract", "T2 sequence (looked up)": "T1 sequence (looked up) with K112Q, K113Q, R1008I, Q1155E", "assay": "cross-linking; in vivo BMOE cross-link of cysteine pairs in yeast cells arrested in late G1 by non-degradable Sic1(9m); Scc1-PK immunoprecipitated, western blot, band intensities quantified", "details": "partners not purified"}}, "note": "Where a chain is given by its changes, count along the chain named."}
{"binder": "B1", "values": [{"measurement": "fold change of the crosslink against wild-type Smc3 (K1004C)", "setting": "[1]", "result": "~10", "unit": "fold"}, {"measurement": "crosslink relative to wild type", "setting": "[2]", "result": "~70", "unit": "%"}]}
